First the molecules themselves.
B1: Hairpin Ribozyme (parent)
chain: GUCCUCUUUCACGUGCGCGUGAAAGAGAGAAGUGAACCAGAGAAACACACGUUGUGGUAUAUUACCUGGUA

In this data set the parent is B1. The data set can be described thus: self-cleavage, relative activity (ratio to wild type); higher = more cleavage; co-transcriptional.
On to G21A G34U, for which the self-cleavage stood at 1.08.

Take U9C G15U: the self-cleavage worked out at 0.879.

In the case of U20G A59G, the self-cleavage came to 0.167.

Consider C46A A47U, for which the self-cleavage amounted to 0.199.

For G13C G17U, the self-cleavage turned out to be 0.492.

Take A61U G68C: the self-cleavage came out at 0.191.

Regarding U9G A23G, the self-cleavage amounted to 0.72.

For G1U A59U, the self-cleavage was determined as 0.195.

C4A G34C: the self-cleavage is 0.676.

In the case of A28G U52A, the self-cleavage amounted to 0.814.

In the case of C46U U63G, the self-cleavage came to 0.221.

For the variant C12G U67G, the self-cleavage was found to be 0.215.

C3U C6G: the self-cleavage was 0.288.

For C4U U53A, the self-cleavage worked out at 0.358.

As for U33A A35U, the self-cleavage was determined as 0.131.

As to A39C C50U, the self-cleavage is 0.156.

Consider C6G A35G, for which the self-cleavage stood at 0.414.

On to C12A A49G, for which the self-cleavage worked out at 0.474.

Regarding A36U G40A, the self-cleavage is 0.296.

As to G56A C66U, the self-cleavage was found to be 0.296.

Take C4A A11C: the self-cleavage was found to be 0.353.

Turning to A31G C66A, the self-cleavage was found to be 0.127.

In the case of U2C A61G, the self-cleavage was found to be 0.0293.

For A59G U60A, the self-cleavage is 0.164.

As to C4A U55A, the self-cleavage was found to be 0.163.

As for C12U C50U, the self-cleavage came out at 0.431.

With A36G U60A, the self-cleavage turned out to be 0.779.

With U14C C18G, the self-cleavage is 0.957.

Consider G15C U33C, for which the self-cleavage was 0.233.

With C38G A59G, the self-cleavage worked out at 0.162.

For C38G A59U, the self-cleavage is 0.125.

C3G U53A: the self-cleavage is 0.212.

As for U8C A44C, the self-cleavage stood at 0.131.

Consider C16U G42C, for which the self-cleavage came out at 0.346.

Turning to U20C G27C, the self-cleavage was found to be 0.169.

Take C16U A44C: the self-cleavage is 0.0379.

G21C A24G: the self-cleavage was 0.555.

Take U5A G54C: the self-cleavage amounted to 0.124.

With U9A C10U, the self-cleavage stood at 0.455.

As for U9A C10G, the self-cleavage turned out to be 0.519.

In the case of A26U U70C, the self-cleavage came to 0.721.

Regarding U62G U63A, the self-cleavage was 0.0488.

Consider A11U U53A, for which the self-cleavage came to 0.679.

As to C6U A43G, the self-cleavage came to 0.151.

As for C18U A61G, the self-cleavage was found to be 0.276.

As to G42U G51C, the self-cleavage came out at 0.392.

Turning to C12A G15C, the self-cleavage was determined as 0.837.

As for G25A A44C, the self-cleavage amounted to 0.139.

Turning to U33A U53A, the self-cleavage came to 0.103.

Take G29A A36C: the self-cleavage turned out to be 0.0858.

Consider G57U U63G, for which the self-cleavage turned out to be 0.291.

For the variant U20G G57U, the self-cleavage came out at 0.212.

For the variant A44U U58G, the self-cleavage was found to be 0.136.

Take A31C C38A: the self-cleavage came out at 0.141.

For C12U G68U, the self-cleavage came out at 0.27.

Turning to G17C G57A, the self-cleavage was found to be 0.148.

On to C12A G56C, for which the self-cleavage is 0.0797.

U70A A71C: the self-cleavage is 1.21.

Take G13A C46A: the self-cleavage was 0.124.

In the case of G27C U33C, the self-cleavage is 0.117.

Turning to U8C A71G, the self-cleavage worked out at 0.974.

With G54C U67C, the self-cleavage worked out at 0.109.

For the variant G34C A59G, the self-cleavage was found to be 0.174.

With A24U G40U, the self-cleavage turned out to be 0.187.

In the case of G21U A31G, the self-cleavage stood at 0.325.

C46A U55G: the self-cleavage was determined as 0.253.

As for U62G G68U, the self-cleavage is 0.257.

On to C12G A35U, for which the self-cleavage worked out at 0.731.

Turning to U20C C66A, the self-cleavage worked out at 0.309.

As for U20C G51C, the self-cleavage worked out at 0.54.

With U8C A61C, the self-cleavage came to 0.0941.

With C4U G51C, the self-cleavage was 0.337.

Turning to A24G G69U, the self-cleavage came to 0.13.

For the variant C6A A47G, the self-cleavage was 0.157.

Regarding G17A A26C, the self-cleavage is 0.75.

G32C G69C: the self-cleavage was 0.115.

G17A G69C: the self-cleavage turned out to be 0.249.

On to C16A U53G, for which the self-cleavage was determined as 0.877.

In the case of G15A U70C, the self-cleavage was 0.759.

Turning to G57C U70C, the self-cleavage was determined as 0.216.

A44U A45G: the self-cleavage worked out at 0.102.

For the variant C50U G69A, the self-cleavage came to 0.112.

As to U14A G15A, the self-cleavage worked out at 1.

Regarding A39G U55G, the self-cleavage was 0.12.

Take A23C: the self-cleavage was found to be 0.822.

G15A G42U: the self-cleavage was 0.301.

U9C U33A: the self-cleavage was 0.0961.

C10G C46G: the self-cleavage is 0.162.

Turning to C4G G21C, the self-cleavage was 0.231.

Take G29A A44G: the self-cleavage is 0.113.

Consider A41C A59U, for which the self-cleavage was 0.173.

With A41C A45C, the self-cleavage turned out to be 0.11.

As to G1C C4G, the self-cleavage amounted to 0.301.

As for U20G A22U, the self-cleavage was determined as 0.868.

Consider G34C G51U, for which the self-cleavage came to 1.4.

Regarding U7G U8C, the self-cleavage stood at 0.656.

For A35G G40U, the self-cleavage was 0.161.

Regarding U8A G54C, the self-cleavage stood at 0.284.

As for A36U G56A, the self-cleavage was found to be 0.0631.

With G21A A59G, the self-cleavage amounted to 0.125.

With A44U A49G, the self-cleavage came to 0.0827.

In the case of U52C U70C, the self-cleavage was determined as 1.11.

With G54U U62C, the self-cleavage turned out to be 0.172.

With A49C U67A, the self-cleavage amounted to 0.13.

As for A47C G51U, the self-cleavage was 0.392.

Take A24C C48U: the self-cleavage stood at 0.216.

Regarding G29A A43G, the self-cleavage worked out at 0.205.

In the case of G15U G25U, the self-cleavage came out at 0.778.

Regarding A31C C50A, the self-cleavage was determined as 0.139.

A30G G54U: the self-cleavage was found to be 0.123.

C12U G42A: the self-cleavage was 0.149.

Regarding A43C C48U, the self-cleavage came to 0.16.

With A26C U67A, the self-cleavage is 0.0843.

Regarding C12G C37U, the self-cleavage worked out at 0.445.

Regarding A43C U58G, the self-cleavage came out at 0.262.

Turning to C3U G32A, the self-cleavage was 0.08.

As for A39U G69C, the self-cleavage is 0.073.

As for C18G U53A, the self-cleavage is 1.02.

Turning to C10A G32A, the self-cleavage worked out at 0.161.

Take A22G U67A: the self-cleavage is 0.239.

Take C38G G56C: the self-cleavage is 0.0901.

As for A23U A41C, the self-cleavage stood at 0.798.

With C6U U70C, the self-cleavage is 0.901.

As to U8G G29C, the self-cleavage came to 0.141.

Turning to G15C A41U, the self-cleavage came to 1.28.

With C50A G57C, the self-cleavage was 0.133.

Take C10A G54A: the self-cleavage came to 0.338.

Turning to U7C A49G, the self-cleavage is 0.478.

As to C37A G42C, the self-cleavage stood at 0.16.

As for A61U C66A, the self-cleavage was 0.122.

Turning to A26C A49G, the self-cleavage stood at 0.461.

Consider A36C C48G, for which the self-cleavage was found to be 0.118.

Consider A47C U53A, for which the self-cleavage stood at 0.28.

In the case of U2G G56A, the self-cleavage was found to be 0.0909.

On to G42U U53C, for which the self-cleavage worked out at 0.233.

On to C46A G68C, for which the self-cleavage was determined as 0.277.

For the variant G19A G27U, the self-cleavage is 0.237.

U33C U53G: the self-cleavage was found to be 0.299.

Take G13U A41C: the self-cleavage was 0.91.

In the case of G42A U52C, the self-cleavage is 0.208.

On to A35C C37U, for which the self-cleavage was 0.486.

A11U A49G: the self-cleavage came to 0.558.

Consider U52G U67G, for which the self-cleavage was 0.156.

On to A41G U70C, for which the self-cleavage was determined as 0.981.

With G51A U52C, the self-cleavage stood at 0.738.

On to A23G U63G, for which the self-cleavage is 0.338.

Turning to C4G U14C, the self-cleavage was 0.125.

Regarding U5A A43U, the self-cleavage came to 0.188.

For the variant G57A C66A, the self-cleavage stood at 0.215.

For G17U U58C, the self-cleavage is 1.13.

Regarding U8G C16U, the self-cleavage came to 0.916.

Consider U5C A43C, for which the self-cleavage came to 0.193.

Turning to G56A U60G, the self-cleavage is 0.186.

As to A36G A64C, the self-cleavage came out at 0.17.

In the case of U8C A49G, the self-cleavage is 0.347.

Consider U14G G68A, for which the self-cleavage is 0.32.

For A28C G68A, the self-cleavage was determined as 0.182.

Take A59G U70G: the self-cleavage stood at 0.161.

For the variant A41G G51U, the self-cleavage was found to be 0.552.

Consider A24U G54C, for which the self-cleavage was 0.423.

In the case of G13C G21A, the self-cleavage worked out at 0.61.

For C4U G54U, the self-cleavage is 0.198.

Take C48A A61G: the self-cleavage is 0.151.

Turning to G1A U58G, the self-cleavage is 0.256.

With G51A U58C, the self-cleavage stood at 1.09.

Take C6U A49C: the self-cleavage is 0.0449.

With A43C G69C, the self-cleavage came out at 0.196.

The record behind these values is the RNAGym collection of RNA variant scans (doi:10.7554/elife.80360).
